Test results: the nanobody polyreactivity screen of Harvey et al. (2022)

Test: yeast display, Sf9 membrane polyspecificity reagent, FACS + sequencing; frameworks hold sequencing errors
Procedure, shortened: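 In a synthetic yeast display library (Saccharomyces cerevisiae BJ5465), nanobody expression was induced with galactose for 36–48 hours. FACS gates were set low and high (top ~1%) using anti-HA fluorescence for expression and streptavidin fluorescence for binding of the Sf9 membrane reagent. Each polyreactivity label is drawn from the gate of origin.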

| Sequence | polyreactivity (PSR sort gate) |
| --- | --- |
| QVQLVESGGGLVQAGGSLRLSCAASGLTFVYYTMGWYRQAPGKERELVAGINSGGSTYYADSVKGRFTISRDNAKNTVFLQMNSLKPEDTAVYYCAAVQRGYRRFRRIYDYWGQGTQVTVSS | high polyreactivity |
| QVQLVESGGGLVQAGGSLRLSCAASGLTFWGNAMGWYRQAPGKEREFVAGIDRSSVSTYADSVKGRFTISRDNAKNTVYLQMNSLKPEDTAVYYCAVDEYGIWVGWVPYATFGMNYWGQGTQVTVSS | high polyreactivity |
| QVQLVESGGGLVQAGGSLRLSCAASGLTFWGNTMGWYRQAPGKERELVAAISSGGITYYADSVKGRFTISRDNANNTVYLLMNSLKPEETAVYYCIGVFSFVPHEMDYWGLGTQVTVSS | high polyreactivity |
| QVQLVESGGGLVQAGGSLRLSCAASGLTFWGYAMGWYRQAPGKEREFVASISSGGGSTYYADSVKGRFTISRDNAKNTVYLQMNSLKPEDTAVYYCNVDVHLYLYKSYTYRYYYWGQGTQVTVSS | low polyreactivity |
| QVQLVESGGGLVQAGGSLRLSCAASGLTFWRYTMGWYRHAPGKERELVATIRRGTSTNYADSVKGRFTISRDNAKNTVYLQMNSLKPEDTAVYYCAAVPWRYYVEYDYWGQGTQVTVSS | high polyreactivity |
| QVQLVESGGGLVQAGGSLRLSCAASGLTFWRYTMGWYRPAPGKERELVAVITYRGGSTYYADSVKGRFTISRDNAKNTVYLQMNSLKPEDTAVYYCDAGRRTYGLTYDYWGQGTQVTVSS | high polyreactivity |
| QVQLVESGGGLVQAGGSLRLSCAASGLTFWTNTMGWSRQAPGKERELVATISSGGGTYYADSVKGRFTISRDNAKNTVYLQMNSLKPEDTAVYYCAAKRKRYFVGYYYWGQGTQVTVSS | low polyreactivity |
| QVQLVESGGGLVQAGGSLRLSCAASGLTFWYYAMGWYRQAPGKERELVAAISFSGGRTYYADSVKGRFTISRDNAKYTVYLQMNSLKPEDTAVYYCNKATWYPFWYAPSYDYWGQGTQVTVSS | high polyreactivity |
| QVQLVESGGGLVQAGGSLRLSCAASGLTFYEDVLGWYRQAPGKERELVAAISYSGGRTYYADSVQGRFTISRDNAKNTVYLQMNSLKPEDTAVYYSAAQSRYAGKFYYWGQGTQVTVSS | high polyreactivity |
| QVQLVESGGGLVQAGGSLRLSCAASGLTFYGNAMGWYIQAPGKERELVAAISSRGGRTYYADSVKGRFTISRDNAKNTVYLQMNSLKPEDTAVYYCNDRYKYPDMDYWGQGTQVTVSS | high polyreactivity |
| QVQLVESGGGLVQAGGSLRLSCAASGLTFYGNAMGWYRQAPGKERELVAAISRGGRTYYADSVKGRFTISRDNAKNTVYLQMNSLKPEDTAVYYCATVVSRGKQPFDMDYWGQGTQVTVSS | low polyreactivity |
| QVQLVESGGGLVQAGGSLRLSCAASGLTFYGYTMGWYRQAPGKERELVADISISGGSTRYADSVKGRFTISRDNAKNTVYLQMNSLKPEDTAVYYCARDDIYYSNIYDYWGQGTQVTVSS | low polyreactivity |
| QVQLVESGGGLVQAGGSLRLSCAASGLTFYGYVMGWYRQAPGKERELVASISRSGGRTYYADSVKGRFTISRDNAKNTVYLQMNSLKPEDTAVYYCAAADQVGQEDDYWGQGTQVTVSS | low polyreactivity |
| QVQLVESGGGLVQAGGSLRLSCAASGLTFYKNAMGWYRQPPGKERELGAVISSSGGSTYYADSVKGRFTISRDNAKNTVYLQMKSLKPEDTAVYYSARDLYTEYRWGRLTYDYWGQGTQVTVSS | low polyreactivity |
| QVQLVESGGGLVQAGGSLRLSCAASGLTFYPNAMGWYRPAPGKEREFVASISISGRTYYADSVKGRFTISRDNAKNTVYLQMNSLKPEDTAVYYCAARYVRSGLYRKYDYWGQGTQVTVSS | high polyreactivity |
| QVQLVESGGGLVQAGGSLRLSCAASGLTFYQYAMGWYRQAPGKERELVAAISKSAGSTYYADSVKGSFTISRDNAKNTVYLQMNSLKPEDTAVYFCAARVLRLRYDYWGQGTQVTVSS | high polyreactivity |
| QVQLVESGGGLVQAGGSLRLSCAASGLTFYQYAMGWYRQAPGKERELVAGISSGGSTKYADSVKGRFTISRDNAKNTVYLQMNSLKPEDTAVYYCAARFCAFRKGYYYWGQGTQVTVSS | high polyreactivity |
